Measurements taken from US20190046652A1 (AADIGEN, published 2019).
Ends that are not written are not given here.

B1: PC4, also noted PC4D (peptide)
peptide: RWTEWEWW
modifications: also: cyclic version, linkage not given here
B2: C2 (peptide)
peptide: KKQVLAMEHLVT
modifications: not fully specified
B3: VEPEP-3a (peptide)
peptide: XKWFERWFREWPRKRR
HELM: PEPTIDE1{[ac].[bAla].K.W.F.E.R.W.F.R.E.W.P.R.K.R.R.[SCCN[*:1]]}$$$$V2.0
SMILES: CC(=O)NCCC(=O)N[C@@H](CCCCN)C(=O)N[C@@H](Cc1c[nH]c2ccccc12)C(=O)N[C@@H](Cc1ccccc1)C(=O)N[C@@H](CCC(=O)O)C(=O)N[C@@H](CCCNC(=N)N)C(=O)N[C@@H](Cc1c[nH]c2ccccc12)C(=O)N[C@@H](Cc1ccccc1)C(=O)N[C@@H](CCCNC(=N)N)C(=O)N[C@@H](CCC(=O)O)C(=O)N[C@@H](Cc1c[nH]c2ccccc12)C(=O)N1CCC[C@H]1C(=O)N[C@@H](CCCNC(=N)N)C(=O)N[C@@H](CCCCN)C(=O)N[C@@H](CCCNC(=N)N)C(=O)N[C@@H](CCCNC(=N)N)C(=O)NCCS
notes: Synthetic cell-penetrating peptide
B4: C4 (peptide)
peptide: KKQVRMAHLVLT
modifications: not fully specified

Tests used:
HIV integrase = HIV integrase (HIV-1-LAI, UniProt P03367 1160-1447); test: cell-based or functional assay
cdk2/cyclin A complex = cdk2/cyclin A complex (UniProt P24941 1-298; P20248 1-432); test: cell-based or functional assay
PC4, also noted PC4D = target: B1; test: fluorescence titration, curve fitting
C2 = target: B2; test: fluorescence titration, curve fitting
C4 = target: B4; test: fluorescence titration, curve fitting
CDK4/cyclin D complex = CDK4/cyclin D complex (UniProt P11802 2-303); test: cell-based or functional assay
Sequence of CDK4/cyclin D complex (P11802 2-303, one chain of several): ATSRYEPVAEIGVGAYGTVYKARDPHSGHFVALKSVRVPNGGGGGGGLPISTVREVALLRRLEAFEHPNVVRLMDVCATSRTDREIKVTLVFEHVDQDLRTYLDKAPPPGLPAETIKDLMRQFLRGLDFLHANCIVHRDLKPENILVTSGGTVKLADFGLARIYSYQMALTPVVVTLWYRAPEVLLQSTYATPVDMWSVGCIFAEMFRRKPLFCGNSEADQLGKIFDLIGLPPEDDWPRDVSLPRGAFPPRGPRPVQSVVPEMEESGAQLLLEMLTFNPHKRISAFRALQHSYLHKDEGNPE

For B1, the “IC50, antiviral activity (RT activity in supernatants of HIV-1 LAI infected PBMC), peptide with VEPEP-3 carrier” value (HIV integrase) was 0.12 nM.

For B2, the “IC50, proliferation of HEK-2 cells (C2 delivered by VEPEP-3)” value (cdk2/cyclin A complex) was 102 nM and the “IC50, proliferation of Hela cells (C2 delivered by VEPEP-3)” value (cdk2/cyclin A complex) was 37 nM.

With B3 the Kd (PC4, also noted PC4D) was 50 to 100 nM, the binding result (C2) was “binds” and the binding result (C4) was “binds”.

KWETWWET [PC6, also noted PC6D] was tested, and the “IC50, antiviral activity (RT activity in supernatants of HIV-1 LAI infected PBMC), peptide with VEPEP-3 carrier” value (HIV integrase) was 0.09 nM.

With B4 the “IC50, proliferation of HEK-2 cells (C4 delivered by VEPEP-3)” value (CDK4/cyclin D complex) was 78 nM, the “IC50, proliferation of Hela cells (C4 delivered by VEPEP-3)” value (CDK4/cyclin D complex) was 35 nM and the “IC50, proliferation of MCF7 cells (C4 delivered by VEPEP-3)” value (CDK4/cyclin D complex) was 58 nM.
